Reference: PMC8287922
Where two headings read alike, the source gives them in different places.

Columns and labels:
Assay in all cases: EMSA
Pax7 PD-HD [1] = molecular target: T1, Pax7 PD-HD (mouse (Mus musculus), UniProt P47239 35-273)
Pax7 HD = Pax7 HD (mouse (Mus musculus), UniProt P47239 215-273)
Pax7 PD-HD [2] = molecular target: T1, Pax7 PD-HD; remark: listed apart in the source
Pax7 PD-HD homodimer = Pax7 PD-HD homodimer (mouse (Mus musculus), UniProt P47239 35-273)
Pax7 PD = Pax7 PD (mouse (Mus musculus), UniProt P47239 35-158)
Pax7 PD-L = Pax7 PD-L (mouse (Mus musculus), UniProt P47239 35-215)
Pax7 PD-HD [3] = molecular target: T1, Pax7 PD-HD; remark: listed apart in the source
Pax7 PD-HD [4] = molecular target: T1, Pax7 PD-HD; remark: listed apart in the source

T1 sequence (P47239 35-273): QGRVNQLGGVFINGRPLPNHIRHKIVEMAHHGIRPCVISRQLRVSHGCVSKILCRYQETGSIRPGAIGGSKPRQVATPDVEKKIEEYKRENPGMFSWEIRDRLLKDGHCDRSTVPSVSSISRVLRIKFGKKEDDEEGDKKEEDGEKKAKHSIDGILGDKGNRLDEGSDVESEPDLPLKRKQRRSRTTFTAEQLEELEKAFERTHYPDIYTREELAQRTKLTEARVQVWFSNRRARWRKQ
Chain of Pax7 HD (P47239 215-273): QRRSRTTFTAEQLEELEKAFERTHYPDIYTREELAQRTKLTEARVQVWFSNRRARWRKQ
Chain of Pax7 PD (P47239 35-158): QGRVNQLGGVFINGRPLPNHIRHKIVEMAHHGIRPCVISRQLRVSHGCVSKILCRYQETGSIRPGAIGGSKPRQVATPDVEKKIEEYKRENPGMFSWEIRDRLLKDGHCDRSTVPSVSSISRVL
Chain of Pax7 PD-L (P47239 35-215): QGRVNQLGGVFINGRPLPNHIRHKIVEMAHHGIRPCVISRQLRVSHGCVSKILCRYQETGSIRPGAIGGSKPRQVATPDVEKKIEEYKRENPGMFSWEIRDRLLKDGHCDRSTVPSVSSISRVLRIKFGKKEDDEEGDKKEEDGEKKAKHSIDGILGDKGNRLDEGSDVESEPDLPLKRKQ
Chain of Pax7 PD-HD homodimer (P47239 35-273): as the sequence (P47239 35-273) above

B1: H.I-2 (dsDNA)
DNA 1: TCGACCAGATCGTCCGCTAATTACCAACGACCTCGA
DNA 2: TCGAGGTCGTTGGTAATTAGCGGACGATCTGGTCGA
B1: binds (Pax7 PD-HD [1]); no binding (Pax7 HD).

B2: H.I2 (dsDNA)
DNA 1: TCGACTCGTCCGCTAATTGATTATCCAACGACCTCGA
DNA 2: TCGAGGTCGTTGGATAATCAATTAGCGGACGAGTCGA
B2: binds (Pax7 PD-HD [2]); binds (Pax7 HD); binds (Pax7 PD-HD homodimer).

B3: PD (mutated HD) (dsDNA)
DNA 1: TCGACGCAGATCCGTGACGCCAGTTCCGACCTCGA
DNA 2: TCGAGGTCGGAACTGGCGTCACGGATCTGCGTCGA
B3: binds (Pax7 PD); binds (Pax7 PD-L); binds (Pax7 PD-HD [3]).

B4: Composite HP.E0 (dsDNA)
DNA 1: TCGACGCAGATCCGTGACTAATGTTCCGACCTCGA
DNA 2: TCGAGGTCGGAACATTAGTCACGGATCTGCGTCGA
B4: binds (Pax7 PD-HD [4]); binds (Pax7 PD).

B5: HD (mutated PD) (dsDNA)
DNA 1: TCGACGCAGATCGTCCGCTAATTCCAACGACCTCGA
DNA 2: TCGAGGTCGTTGGAATTAGCGGACGATCTGCGTCGA
B5: no binding (Pax7 HD).
